Laboratory results taken from CN117466995A (YIDAO BIOTECHNOLOGY SUZHOU CO LTD, dated 2024).
“And” between values parts separate entries of the source, which are not always exact repeats. Equal values may be shown once.

T1: HPV45型衣壳蛋白L1病毒样颗粒(VLP)抗原 (HPV 45型) (UniProt P36741)
T1 sequence: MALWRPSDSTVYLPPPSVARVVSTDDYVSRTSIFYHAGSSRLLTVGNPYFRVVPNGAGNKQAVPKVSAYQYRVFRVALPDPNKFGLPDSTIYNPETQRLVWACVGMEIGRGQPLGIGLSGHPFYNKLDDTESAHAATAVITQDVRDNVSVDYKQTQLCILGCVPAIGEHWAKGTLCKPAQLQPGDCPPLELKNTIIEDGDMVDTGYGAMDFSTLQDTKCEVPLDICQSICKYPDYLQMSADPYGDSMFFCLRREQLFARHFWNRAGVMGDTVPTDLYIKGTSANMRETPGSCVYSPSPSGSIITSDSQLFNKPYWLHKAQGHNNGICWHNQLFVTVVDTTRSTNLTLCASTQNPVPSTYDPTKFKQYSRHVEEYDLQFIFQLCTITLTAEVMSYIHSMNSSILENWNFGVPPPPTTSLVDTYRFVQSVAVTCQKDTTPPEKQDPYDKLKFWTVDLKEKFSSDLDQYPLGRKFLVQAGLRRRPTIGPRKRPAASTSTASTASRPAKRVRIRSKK


What was measured:
[1] = target: T1, HPV45型衣壳蛋白L1病毒样颗粒(VLP)抗原 (HPV 45型); assay: sandwich ELISA, rabbit pAb R163 capture 1:500, mAb 1:20000; antigen 13.3 ug/ml, 2.5-fold series, step 6
[2] = target: T1, HPV45型衣壳蛋白L1病毒样颗粒(VLP)抗原 (HPV 45型); assay: sandwich ELISA, rabbit pAb R163 capture 1:500, mAb 1:20000; antigen 13.3 ug/ml, 2.5-fold series, step 3
[3] = target: T1, HPV45型衣壳蛋白L1病毒样颗粒(VLP)抗原 (HPV 45型); assay: sandwich ELISA, rabbit pAb R163 capture 1:500, mAb 1:20000; column 12, antigen amount not stated (only 11 dilutions described)
[4] = target: T1, HPV45型衣壳蛋白L1病毒样颗粒(VLP)抗原 (HPV 45型); assay: sandwich ELISA, rabbit pAb R163 capture 1:500, mAb 1:20000; antigen 13.3 ug/ml, 2.5-fold series, step 9

Binder | OD [1] | OD [2] | OD [3] | OD [4] [OD]
杂交瘤细胞株7A5(CGMCC NO:45706)分泌的鼠源单克隆抗体 (antibody, V domains shown, also called 鼠单抗7A5; 抗体7A5) VH: QPGAELVKPGASVKLSCKASGYTFTSYWMHWVKQRPGQGLEWIGEINPSNGHTNYNEKFKSKATLTVDKSSSTAYMQLSSLTSEDSAVYYCAPCYGSSYDYYAMDYWGQGTSVTVSS VL: DIVLTQSPASLAVSLGQRATISCRASQSVSTSSYSYMHWYQQKPGQPPKLLIKYASNLESGVPARFSGSGSGTDFTLNIHPVEEEDTATYYCQHSWEIPYTFGGGTKLEIK | 0.614 OD and 0.773 OD | 2.9 OD and 2.78 OD | 0.067 OD and 0.064 OD | 0.106
杂交瘤细胞株11G1(CGMCC NO:45707)分泌的鼠源单克隆抗体 (antibody, V domains shown, also called 鼠单抗11G1; 抗体11G1) VH: QVQLQQPGAELVKPGASVKLSCKASGYTFTSYWMHWVKRRPGQGLEWIGEINPSNGLTNYNEKFKSKGTLTVDKSSSAAFMHLSSLTSEDSAVYYCARFHGSDLYAMDYWGQGTSVTVSS VL: DIVLTQSPASLAVSLGQRATISCRASQSVSTSSYSYMHWYQQKPGQPPKLLIKYASNLESGVPARFSGSGSGTDFTLNIHPVEEEDTATYYCQHSWEIPYTFGGGTKLEIK | 0.364 OD and 0.447 OD | 2.67 OD and 2.65 OD | 0.045 OD and 0.05 OD | 
